In assay [1] the target is FcγRIIb, human, C-terminally biotinylated (human) (UniProt P31994). Briefly: SPR. The conditions noted are these: natural protein; remark: other sources report otherwise.
The target in assay [2] is FcγRIa, FcγRIIa/b, and FcγRIIIa. The assay is described as follows: SPR; IBIS MX96 array; C-terminally biotinylated FcRs spotted at different densities (100–1 nM) on one SensEye G-streptavidin sensor, blocked with biotinylated BSA; CRP injected in 2-fold dilutions from 0.98 to 2,000 nM in 20 mM Tris, 280 mM NaCl, 5 mM CaCl2, pH 8.0; KD by equilibrium fitting to Rmax = 500. (In general: Surface plasmon resonance follows binding to a sensor surface in real time, without labels.)

Sequence of FcγRIIb, human, C-terminally biotinylated (human) (P31994 43-217): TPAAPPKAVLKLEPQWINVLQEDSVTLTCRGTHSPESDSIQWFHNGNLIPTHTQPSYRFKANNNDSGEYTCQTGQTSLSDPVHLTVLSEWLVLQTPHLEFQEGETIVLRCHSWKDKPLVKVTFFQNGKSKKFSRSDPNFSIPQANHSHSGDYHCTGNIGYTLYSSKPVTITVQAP

By Kd is commonly meant the concentration at which binding is half-saturated. High values mean a looser complex, low ones a tighter complex. For the substance “C-reactive protein (native CRP from human fluid) (from UniProt P02741 19-224)”, the Kd in assay [1] amounted to 4.2 µM.
Substance “C-reactive protein (native CRP from human fluid) (from UniProt P02741 19-224) (natural protein)” came in with a Kd in assay [2] of 3.4 to 4.9 µM.

Source of the values: PMC8006934.
